From US20220162320A1 (published 2022)
Numbering of substitutions follows the chain as printed.

B1: scFv G10(1A07) (scFv, V domains shown)
VH: EVQLLESGGGLVKPGGSLRLSCAASGFTFSSYWMSWVRQAPGKGLEWVSGISARSGRTYYADSVKGRFTISRDDSKNTLYLQMNSLKTEDTAVYYCARDQDTIFGVVITWFDPWGQGTLVTVSS
VL: DIQMTQSPSSLSASVGDRVTITCRASQGISNYLAWYQQKPGKAPKLLIYAASSLQGGVPSRFSGSGSGTDFTLTISSLQPEDFATYYCQQYFTTPYTFGQGTKLEIK
B2: scFv G10(1E12) (scFv, V domains shown)
VH: QVQLVQSGAEVKKPGASVKVSCKASGYIFTGYYMHWVRQAPGQGLEWMGMIGPSDGSTSYAQKFQGRVTMTRDTSTSTVYMELSSLRSEDTAVYYCAREDDSMDVWGKGTTVTVSS
VL: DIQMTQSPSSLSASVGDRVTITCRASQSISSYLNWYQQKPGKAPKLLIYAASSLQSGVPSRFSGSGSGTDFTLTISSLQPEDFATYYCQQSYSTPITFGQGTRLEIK
B3: scFv G10(1F06) (scFv, V domains shown)
VH: B2 VH with I28T, T30I, E99D, D100S, D101S, S102G, M103L, V105P, K108Q, T111L
VL: B1 VL with G28S, A34N, A50K, Q55E, G56S, Y91S, F92Y, T93I, T94I
notes: also called G10(1F6)
B4: scFv G10(1H01) (scFv, V domains shown)
VH: B2 VH with I28T, E99G, D100V, D101G, S102N, M103L, V105Y, K108Q, T111L
VL: B1 VL with G28S, A34N, G56S, Q89H, Y91T, F92Y, T93S, Y96L, L104V
B5: scFv G10(2C04) (scFv, V domains shown)
VH: QVQLVQSGAEVKKPGASVKVSCKASGGTFSNSIINWVRQAPGQGLEWMGWMNPNSGNTNYAQKFQGRVTMTRDTSTSTVYMELSSLRSEDTAVYYCAREQWPSYWYFDLWGRGTLVTVSS
VL: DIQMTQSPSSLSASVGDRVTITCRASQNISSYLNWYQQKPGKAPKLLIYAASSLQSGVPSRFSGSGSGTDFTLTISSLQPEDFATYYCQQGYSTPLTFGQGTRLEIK
B6: scFv G10(2G11) (scFv, V domains shown)
VH: QVQLVQSGAEVKKPGASVKVSCKASGGTFSTHDINWVRQAPGQGLEWMGVINPSGGSAIYAQKFQGRVTMTRDTSTSTVYMELSSLRSEDTAVYYCARDRGYSYGYFDYWGQGTLVTVSS
VL: DIQMTQSPSSLSASVGDRVTITCRASQDISRYLAWYQQKPGKAPKLLIYDASNLETGVPSRFSGSGSGTDFTLTISSLQPEDFATYYCQQANSFPRTFGQGTKVEIK
B7: scFv G10(3E04) (scFv, V domains shown)
VH: QVQLVQSGAEVKKPGASVKVSCKASGNTFIGYYVHWVRQAPGQGLEWVGIINPNGGSISYAQKFQGRVTMTRDTSTSTVYMELSSLRSEDTAVYYCARGSGDPNYYYYYGLDVWGQGTTVTVSS
VL: B6 VL with R24Q, R31N, A34N, D50A, E55Q, T56S, F94L, R96Y
B8: scFv G10(4D04) (scFv, V domains shown)
VH: QVQLVQSGAEVKKPGASVKVSCKASGYTFTGYYVHWVRQAPGQGLEWMGIIAPSDGSTNYAQKFQGRVTMTRDTSTSTVYMELSSLRSEDTAVYYCARDPGGYMDVWGKGTTVTVSS
VL: DIQMTQSPSSLSASVGDRVTITCRASQSISSYLAWYQQKPGKAPKLLIYDASKLETGVPSRFSGSGSGTDFTLTISSLQPEDFATYYCQQSYGVPTFGQGTKLEIK
B9: scFv G10(4D10) (scFv, V domains shown)
VH: B2 VH with I28T, M34L, E99D, D100G, S102A, M103F, V105I, K108Q, T111M
VL: B6 VL with D28G, R31S, Y32W, A91S, N92Y, F94T, R96L, Q100G
B10: scFv G10(5A08) (scFv, V domains shown)
VH: QVQLVQSGAEVKKPGSSVKVSCKASGGTFNNFAISWVRQAPGQGLEWMGGIIPIFDATNYAQKFQGRVTFTADESTSTAYMELSSLRSEDTAVYYCARGEYSSGFFFVGWFDLWGRGTQVTVSS
VL: not shown
notes: also called G10(5A8); scFv-G10-P5A08
B11: scFv G10(5C08) (scFv, V domains shown)
VH: QVQLVQSGAEVKKPGASVKVSCKASGYNFTGYYMHWVRQAPGQGLEWMGIIAPSDGSTNYAQKFQGRVTMTRDTSTSTVYMELSSLRSEDTAVYYCARETGDDAFDIWGQGTMVTVSS
VL: not shown
B12: scFv G8(1A03) (scFv, V domains shown)
VH: QVQLVQSGAEVKKPGASVKVSCKASGGTFSRSAITWVRQAPGQGLEWMGWINPNSGATNYAQKFQGRVTMTRDTSTSTVYMELSSLRSEDTAVYYCARDDYGDYVAYFQHWGQGTLVTVSS
VL: B8 VL with S30T, A34N, K53N, S91N, G93N, V94S, P95V
B13: scFv G8(1A04) (scFv, V domains shown)
VH: QVQLVQSGAEVKKPGASVKVSCKASGYPFIGQYLHWVRQAPGQGLEWMGIINPSGDSATYAQKFQGRVTMTRDTSTSTVYMELSSLRSEDTAVYYCARDLSYYYGMDVWGQGTTVTVSS
VL: B1 VL with R24W, N31S, G56S, Y91S, F92Y, T93N, Y96W, Q100P, L104V, E105D
B14: scFv G8(1A06) (scFv, V domains shown)
VH: QVQLVQSGAEVKKPGASVKVSCKASGYTFTNYYMHWVRQAPGQGLEWMGWMNPIGGGTGYAQKFQGRVTMTRDTSTSTVYMELSSLRSEDTAVYYCARVYDFWSVLSGFDIWGQGTLVTVSS
VL: B1 VL with G28A, Y32S, S53T, G56S, Q89G, Y91S, F92Y, T93S, Y96P
B15: scFv G8(1B03) (scFv, V domains shown)
VH: EVQLLESGGGLVQPGGSLRLSCAASGFTFSDYYMSWVRQAPGKGLEWVSGINWNGGSTGYADSVKGRFTISRDNSKNTLYLQMNSLRAEDTAVYYCARVEQGYDIYYYYYMDVWGKGTTVTVSS
VL: DIQMTQSPSSLSASVGDRVTITCRASQSISSYLNWYQQKPGKAPKLLIYKASSLESGVPSRFSGSGSGTDFTLTISSLQPEDFATYYCQQSYSAPYTFGPGTKVDIK
B16: scFv G8(1D02) (scFv, V domains shown)
VH: EVQLLESGGGLVQPGGSLRLSCAASGFTFSSYWMSWVRQAPGKGLEWVSSISGRGDNTYYADSVKGRFTISRDNSKNTLYLQMNSLRAEDTAVYYCARASGSGYYYYYGMDVWGQGTTVTVSS
VL: B15 VL with R24Q, S28D, S31N, K50A, E55Q, P100G, D105E
B17: scFv G8(1H08) (scFv, V domains shown)
VH: QVQLVQSGAEVKKPGASVKVSCKASGYTFGNYFMHWVRQAPGQGLEWMGMVNPSGGSETFAQKFQGRVTMTRDTSTSTVYMELSSLRSEDTAVYYCAASTWIQPFDYWGQGTLVTVSS
VL: B6 VL with D28G, S30N, R31S, A91H, F94Y, R96P, V104L
notes: also called G8-P1H08
B18: scFv G8(2B05) (scFv, V domains shown)
VH: EVQLLESGGGLVQPGGSLRLSCAASGFDFSIYSMNWVRQAPGKGLEWVSAISGSGGSTYYADSVKGRFTISRDNSKNTLYLQMNSLRAEDTAVYYCASNGNYYGSGSYYNYWGQGTLVTVSS
VL: B1 VL with G28S, N31R, Y32W, G56S, F92S, T94Y, Y96I, F98I, L104V
B19: scFv G8(2E06) (scFv, V domains shown)
VH: QVQLVQSGAEVKKPGASVKVSCKASGYTLTTYYMHWVRQAPGQGLEWMGWINPNSGGTNYAQKFQGRVTMTRDTSTSTVYMELSSLRSEDTAVYYCARAVYYDFWSGPFDYWGQGTLVTVSS
VL: B1 VL with Y32S, G56S, Y91A, F92N, T93S, T94F, Y96W
B20: scFv G8(4F05) (scFv, V domains shown)
VH: QVQLVQSGAEVKKPGASVKVSCKASGYTFSNMYLHWVRQAPGQGLEWMGWINPNTGDTNYAQTFQGRVTMTRDTSTSTVYMELSSLRSEDTAVYYCARGLYGDYFLYYGMDVWGQGTKVTVSS
VL: B1 VL with S53T, G56S, Y91S, F92Y, T93S, Y96L, Q100G, L104V
B21: scFv G8(5C03) (scFv, V domains shown)
VH: QVQLVQSGAEVKKPGASVKVSCKASGYTFTSYYMHWVRQAPGQGLEWMGWMNPNSGNTGYAQKFQGRVTMTRDTSTSTVYMELSSLRSEDTAVYYCARGLLGFGEFLTYGMDVWGQGTLVTVSS
VL: B1 VL with Y32W, S53T, G56S, Y91T, F92Y, T93S, Y96W
B22: scFv G8(5F02) (scFv, V domains shown)
VH: QVQLVQSGAEVKKPGASVKVSCKASGYTFTGYYIHWVRQAPGQGLEWMGVINPSGGSTTYAQKLQGRVTMTRDTSTSTVYMELSSLRSEDTAVYYCARDRDSSWTYYYYGMDVWGQGTTVTVSS
VL: EIVMTQSPATLSVSPGERATLSCRASQSVGNSLAWYQQKPGQAPRLLIYGASTRATGIPARFSGSGSGTEFTLTISSLQSEDFAVYYCQQYGSSPYTFGQGTKVEIK
B23: scFv G8(5G08) (scFv, V domains shown)
VH: B20 VH with S30T, N31S, M32N, L34M, I51M, T55S, D57N, N59G, T63K, K118T
VL: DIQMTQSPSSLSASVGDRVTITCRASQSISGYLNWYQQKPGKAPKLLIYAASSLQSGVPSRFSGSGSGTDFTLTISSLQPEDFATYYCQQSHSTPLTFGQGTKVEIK
B24: scFv G8(1C01) (scFv, V domains shown)
VH: QVQLVQSGAEVKKPGASVKVSCKASGGTFSSHAISWVRQAPGQGLEWMGVIIPSGGTSYTQKFQGRVTMTRDTSTSTVYMELSSLRSEDTAVYYCARGDYYDSSGYYFPVYFDYWGQGTLVTVSS
VL: B6 VL with D28N, S30Y, R31T, A34N, S93G, R96L, Q100G

target: HLA-A*02:01 (alpha chain with beta-2 microglobulin), recombinant (human); experiment: conditional ligand exchange, stability ELISA

| Binder | binding result |
| --- | --- |
| LLASSILCA (also called G7 peptide) [peptide LLASSILCA] | binds |

target: HLA-PEPTIDE target G10: HLA-A*01:01_…, recombinant soluble complex (human, enzymatically biotinylated (BirA)); experiment: phage display, scFv ELISA on pHLA against negative control pHLAs

| Binder | binding result |
| --- | --- |
| B1 | binds |
| B2 | binds |
| B3 | binds |
| B4 | binds |
| B5 | binds |
| B6 | binds |
| B7 | binds |
| B8 | binds |
| B9 | binds |
| B10 | binds |
| B11 | binds |

target: HLA-PEPTIDE target G8: HLA-A*02:01_…, recombinant soluble complex (human, enzymatically biotinylated (BirA) for screening and BLI); experiment: as above

| Binder | binding result |
| --- | --- |
| B12 | binds |
| B13 | binds |
| B14 | binds |
| B15 | binds |
| B16 | binds |
| B17 | binds |
| B18 | binds |
| B19 | binds |
| B20 | binds |
| B21 | binds |
| B22 | binds |
| B23 | binds |
| B24 | binds |
